Residue numbers refer to the chain shown, from its start. Names and notes keep the numbering of the source. Values belong to the binder of their own block, whether it stands above or below them.
Assays:
[1] = molecular target: T1, Gremlin; test: BIAcore, immobilised Gremlin, BMP-2 as analyte
T1 construct: Bought (R&D systems)
Experimental: (§1) Proteins were biotinylated and immobilised to streptavidin-coated sensor chip CM5 (Kirsch et al., 2000a). The extracellular domain of BRIA, BRIB and ARII were prepared as described (Kirsch et al., 2000a). […] Interaction with analyte was measured on a BIAcore 2000 system (Kirsch et al., 2000a). Evaluation of sensorgrams (Biaevaluation software 2.0) yielded kinetic constants for complex formation (kₒₙ) and dissociation (koff). […] Apparent dissociation constants KD were either calculated as KD=koff/kₒₙ or by evaluating dose dependency of equilibrium binding.

[2] = molecular target: BRIA receptor on C2C12 and ATDC5 cells; test: cell-based or functional assay
[3] = molecular target: T2, BRIBEC, extracellular domain of BMPR-IB; test: BIAcore, immobilised BRIB ectodomain, BMP-2 as analyte
T2 construct: extracellular domain; Biotinylated, immobilised on a streptavidin chip; also called BRIB receptor
Experimental: as §1

[4] = molecular target: T3, Chordin CR3; test: BIAcore, immobilised Chordin CR3, BMP-2 as analyte
T3 construct: domain: CR3; also called Chordin domain CR3
Experimental: as §1

[5] = molecular target: T4, Chordin CR1; test: BIAcore, immobilised Chordin CR1, BMP-2 as analyte
T4 construct: domain: CR1; also called Chordin domain CR1
Experimental: as §1

[6] = molecular target: T5, Activin receptor II ectodomain; test: BIAcore, immobilised ARII ectodomain, BMP-2 as analyte
T5 construct: extracellular domain; Biotinylated, immobilised on a streptavidin chip; also called ARII; type II receptor ARII
Experimental: as §1

[7] = molecular target: T5, Activin receptor II ectodomain; test: BIAcore, immobilised ARII ectodomain, mutein as analyte, against BMP-2 wild type
Experimental: as §1

[8] = molecular target: T2, BRIBEC, extracellular domain of BMPR-IB; test: BIAcore, immobilised BRIB ectodomain, mutein as analyte, against BMP-2 wild type
Experimental: as §1

[9] = molecular target: T6, Noggin/Fc; test: BIAcore, immobilised Noggin, mutein as analyte, against BMP-2 wild type
T6 construct: Bought (R&D systems); construct not described; also called Noggin-Fc fusion protein
T6 sequence (Q13253 whole entry, species assumed, looked up): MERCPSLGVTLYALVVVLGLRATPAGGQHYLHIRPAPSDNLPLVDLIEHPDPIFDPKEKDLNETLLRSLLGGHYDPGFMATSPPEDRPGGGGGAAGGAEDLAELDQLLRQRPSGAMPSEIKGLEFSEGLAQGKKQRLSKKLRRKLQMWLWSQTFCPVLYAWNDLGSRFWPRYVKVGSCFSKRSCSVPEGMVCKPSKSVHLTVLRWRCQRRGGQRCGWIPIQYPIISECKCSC
Experimental: as §1

[10] = molecular target: T4, Chordin CR1; test: BIAcore, immobilised Chordin CR1, mutein as analyte, against BMP-2 wild type
Experimental: as §1

[11] = molecular target: T3, Chordin CR3; test: BIAcore, immobilised Chordin CR3, mutein as analyte, against BMP-2 wild type
Experimental: as §1

[12] = molecular target: T1, Gremlin; test: BIAcore, immobilised Gremlin, mutein as analyte, against BMP-2 wild type
Experimental: as §1

[13] = molecular target: T6, Noggin/Fc; test: BIAcore, immobilised Noggin
Experimental: as §1

T1 sequence (O70326 25-184): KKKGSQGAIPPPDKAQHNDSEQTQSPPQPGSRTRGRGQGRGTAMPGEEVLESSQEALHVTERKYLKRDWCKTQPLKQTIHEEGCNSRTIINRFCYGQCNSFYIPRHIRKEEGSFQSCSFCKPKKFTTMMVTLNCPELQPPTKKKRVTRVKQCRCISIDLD
T5 sequence (P27037 20-135): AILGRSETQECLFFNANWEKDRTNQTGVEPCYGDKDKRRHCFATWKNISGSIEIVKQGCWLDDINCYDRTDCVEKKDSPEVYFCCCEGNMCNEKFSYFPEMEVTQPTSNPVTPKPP
T2 sequence (P36898 14-126): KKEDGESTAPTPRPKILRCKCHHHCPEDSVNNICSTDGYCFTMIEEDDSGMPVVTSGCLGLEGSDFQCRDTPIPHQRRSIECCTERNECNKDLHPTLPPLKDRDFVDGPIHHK

B5: BMP-2 L51P (ligand)
chain: QAKHKQRKRLKSSCKRHPLYVDFSDVGWNDWIVAPPGYHAFYCHGECPFPPADHLNSTNHAIVQTLVNSVNSKIPKACCVPTELSAISMLYLDENEKVVLKNYQDMVVEGCGCR
notes: also called L51P mutein; BMP-2 proline mutein L51P
KD(mut)/KD(WT) [9]: 0.27 ratio | KD(Mut)/KD(WT) [7]: 2.3 ratio | ED50 of induction of alkaline phosphatase (ALP) activity in ATDC5 cells [2]: > 1500 nM | ED50 of induction of alkaline phosphatase (ALP) activity in C2C12 cells [2]: > 1600 nM | KD(mut)/KD(WT) [10]: 0.85 ratio | KD(mut)/KD(WT) [11]: 0.9 ratio | KD(mut)/KD(WT) [12]: 0.55 ratio | Kd [13]: 0.5 nM

B6: BMP-2 D53P (ligand)
chain: B5 chain with P51L, D53P
notes: also called BMP-2 proline mutein D53P
KD(mut)/KD(WT) [9]: 1.3 ratio | KD(Mut)/KD(WT) [7]: 1.2 ratio | ED50 of induction of alkaline phosphatase (ALP) activity in ATDC5 cells [2]: 140 nM | ED50 of induction of alkaline phosphatase (ALP) activity in C2C12 cells [2]: 330 nM | KD(mut)/KD(WT) [10]: 0.7 ratio | KD(mut)/KD(WT) [11]: 1.1 ratio | KD(Mut)/KD(WT) [8]: 10 ratio | KD(mut)/KD(WT) [12]: 0.7 ratio | Kd [13]: 2.5 nM

B7: BMP-2 D53A (ligand)
chain: B5 chain with P51L, D53A
KD(Mut)/KD(WT) [7]: 1.2 ratio | KD(Mut)/KD(WT) [8]: 0.34 ratio

More lines, now with the values ahead:

Kd [1]: 22 nM | ED50 of induction of alkaline phosphatase (ALP) activity in ATDC5 cells [2]: 8 nM | ED50 of induction of alkaline phosphatase (ALP) activity in C2C12 cells [2]: 25 nM | Kd [3]: 3.6 nM | Kd [4]: 67 nM | Kd [5]: 61 nM | Kd [6]: 14 nM
B1: BMP-2 wild type (ligand)
chain: B5 chain with P51L
notes: also called hBMP-2; human BMP-2

KD(Mut)/KD(WT) [7]: 0.9 ratio
B2: BMP-2 S69R (ligand)
chain: B5 chain with P51L, S69R
notes: also called S69R mutein

KD(Mut)/KD(WT) [7]: 1.4 ratio | KD(Mut)/KD(WT) [8]: 3.2 ratio
B3: BMP-2 Y103A (ligand)
chain: B5 chain with P51L, Y103A

KD(Mut)/KD(WT) [7]: 1.2 ratio | KD(Mut)/KD(WT) [8]: 1.7 ratio
B4: BMP-2 W28F (ligand)
chain: B5 chain with W28F, P51L
notes: also called W28F mutein

— patent US20070293425A1 (JULIUS MAXIMILIANS UNIVERSITAT WURZBURG, published 2007)
